The values below come from patent US20230257440A1 (published 2023).

The test addresses T1, RAS G12V (KRAS, HRAS or NRAS) peptide on HLA-DRA*01:01 / HLA-DRB1*01:01 (human).
T1 peptide: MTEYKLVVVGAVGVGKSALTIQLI
Description: cytokine release. On the procedure:
FIG. 2 is a graph showing IFN-γ secretion (spots/3e4 cells) measured by ELISPOT assay following co-culture of effector cells with target cells. […] Target cells were […] or HEK 293 cells independently transfected with one of the HLA Class II heterodimers shown. The target cells were loaded with the G12V 24-mer peptide and were cultured in the presence or absence of an antibody which blocked the respective HLA Class II molecule previously transfected. Target cells cultured with DMSO served as a negative control.
Reactivity was tested by IFNγ-secretion using ELISpot assay. […] This reactivity was blocked by an antibody which recognized the DRA*01:01/DRB1*01:01 heterodimer.

B1: 4304 TCR1 (TCR, V domains shown)
Valpha: AQRVTQPEKLLSVFKGAPVELKCNYSYSGSPELFWYVQYSRQRLQLLLRHISRESIKGFTADLNKGETSFHLKKPFAQEEDSAMYYCALLQGAQKLVFGQGTRLTINP
Vbeta: SAVISQKPSRDICQRGTSLTIQCQVDSQVTMMFWYRQQPGQSLTLIATANQGSEATYESGFVIDKFPISRPNLTFSTLTVSNMSPEDSSIYLCSVESGQDYGYTFGSGTRLTVV
Regarding B1, the binding result is reported as “recognises”.
